Measurements reported in the supplement of paper PMC9876800.

Test system: peptide library, one residue held at a place counted from the S/T acceptor
Assay: relative phosphorylation of the sub-library (ratio to the mean residue at this position); higher = residue favoured
Conditions: human
In short: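 Purified recombinant kinases were reacted in 384-well plates with biotinylated degenerate peptide sub-libraries, each having one residue fixed at one position around a central Ser/Thr. The reaction mix contained 50 μM peptide plus 50 μM ATP spiked with γ-32P-ATP and ran for 90 min under kinase-specific conditions. Relative sub-library phosphorylation, taken from densitometry of phosphorimaged streptavidin membrane spots, is a ratio to the mean residue at that position.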

Chain of MAP4K1, construct: Full length (Q92918 whole entry, looked up): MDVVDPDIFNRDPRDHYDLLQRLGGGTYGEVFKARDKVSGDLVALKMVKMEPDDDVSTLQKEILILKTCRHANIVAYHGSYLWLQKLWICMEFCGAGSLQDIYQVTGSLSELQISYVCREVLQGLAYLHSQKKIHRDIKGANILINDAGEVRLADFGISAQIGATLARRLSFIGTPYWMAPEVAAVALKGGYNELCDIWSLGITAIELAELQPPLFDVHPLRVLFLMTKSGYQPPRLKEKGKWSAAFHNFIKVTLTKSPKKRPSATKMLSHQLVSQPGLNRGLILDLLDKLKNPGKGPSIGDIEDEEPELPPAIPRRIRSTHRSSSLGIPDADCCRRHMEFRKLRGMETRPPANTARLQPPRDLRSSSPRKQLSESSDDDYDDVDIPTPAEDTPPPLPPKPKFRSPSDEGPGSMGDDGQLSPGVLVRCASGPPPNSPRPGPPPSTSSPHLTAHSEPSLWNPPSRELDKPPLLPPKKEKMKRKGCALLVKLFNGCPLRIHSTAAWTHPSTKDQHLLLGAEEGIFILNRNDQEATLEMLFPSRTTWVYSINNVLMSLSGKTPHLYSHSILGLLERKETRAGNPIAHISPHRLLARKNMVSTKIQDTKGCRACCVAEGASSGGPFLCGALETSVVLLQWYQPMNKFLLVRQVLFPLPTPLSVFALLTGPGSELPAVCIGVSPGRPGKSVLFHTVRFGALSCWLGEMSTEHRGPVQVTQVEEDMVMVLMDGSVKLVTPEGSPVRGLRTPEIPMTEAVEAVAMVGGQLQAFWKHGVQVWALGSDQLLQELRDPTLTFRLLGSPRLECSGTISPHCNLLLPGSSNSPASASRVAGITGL
Chain of MAPK11, construct: Full length (Q15759 whole entry, looked up): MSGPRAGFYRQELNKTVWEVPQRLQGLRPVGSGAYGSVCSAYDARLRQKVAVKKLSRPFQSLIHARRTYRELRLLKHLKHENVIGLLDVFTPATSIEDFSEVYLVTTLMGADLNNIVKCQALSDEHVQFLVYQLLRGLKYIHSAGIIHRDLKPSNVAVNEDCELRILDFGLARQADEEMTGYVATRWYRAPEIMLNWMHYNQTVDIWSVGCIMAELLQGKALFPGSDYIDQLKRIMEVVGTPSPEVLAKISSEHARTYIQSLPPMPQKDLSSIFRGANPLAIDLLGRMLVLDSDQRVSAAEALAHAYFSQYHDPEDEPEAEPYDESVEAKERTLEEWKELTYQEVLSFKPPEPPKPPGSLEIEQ

MAPK11, construct: Full length (from UniProt Q15759)
relative phosphorylation
Conditions	at +1	at +2	at +3	at +4	at -1	at -2	at -3	at -4	at -5
A fixed	1.65	1.14	1.35	0.935	1.22	0.953	1.26	1.14	1.12
D fixed	0.136	0.985	0.947	0.919	0.745	0.501	0.917	1.25	1.06
E fixed	0.12	0.81	0.98	0.818	0.765	0.338	1.03	1.13	0.921
F fixed	0.268	0.828	0.913	1.27	0.852	0.614	0.708	0.766	0.944
G fixed	0.841	1.14	1.08	1.19	1.24	0.73	1.53	1.21	1.22
H fixed	0.227	1.1	0.959	1.15	1.21	0.572	0.902	0.941	1.12
I fixed	0.304	1.15	1.11	1.05	0.676	1.16	1.04	0.885	0.88
K fixed	0.209	1.12	0.583	0.818	0.842	0.461	0.722	0.961	0.921
L fixed	0.337	1.04	1.01	1.14	1.37	1.46	1.09	0.982	1.08
M fixed	0.26	0.951	0.852	1.08	1.67	1.22	0.988	1.06	0.941
N fixed	0.141	0.874	0.632	0.764	0.705	0.585	0.886	0.952	0.956
P fixed	11.4	0.762	1.95	1.01	1.39	5.14	1.61	1.29	1.37
Q fixed	0.185	0.942	0.71	0.859	1.26	0.633	1.05	0.94	0.902
R fixed	0.206	1.08	0.676	0.871	0.847	0.505	0.835	0.823	0.834
V fixed	0.289	1.24	1.25	0.995	0.749	1.16	0.954	0.896	0.839
W fixed	0.206	0.792	0.975	1.04	0.618	0.437	0.723	0.946	0.913
Y fixed	0.2	1.05	1.02	1.1	0.833	0.53	0.748	0.83	0.981
pThr fixed	0.405	1.32	1.18	0.795	0.364	0.617	1.1	1.16	1.15
pTyr fixed	0.589	0.741	0.996	0.757	0.653	0.396	0.932	1.04	1.05

MAP4K1, construct: Full length (from UniProt Q92918)
relative phosphorylation
Conditions	at +1	at +2	at +3	at +4	at -1	at -2	at -3	at -4	at -5
A fixed	0.465	0.82	0.882	0.928	0.991	1.1	0.946	0.951	1.07
D fixed	0.192	0.786	0.471	0.756	0.585	0.362	0.52	0.653	0.679
E fixed	0.199	0.706	0.454	0.629	0.441	0.302	0.487	0.699	0.613
F fixed	1.23	0.581	0.893	0.879	0.987	1.36	0.908	1.14	1.11
G fixed	0.58	0.957	0.933	1.13	1.79	1.06	1.21	1.29	1.15
H fixed	0.575	1.13	1.04	1.08	1.37	1.36	1.3	1.08	1.07
I fixed	1.91	0.442	0.571	0.806	0.342	0.646	0.545	0.706	0.763
K fixed	0.56	2.51	1.8	1.65	1.24	1.11	1.93	1.26	1.49
L fixed	3.52	0.604	0.724	0.863	1.17	0.667	0.694	0.798	0.746
M fixed	2.94	0.695	0.763	0.861	1.26	0.794	0.823	0.896	0.934
N fixed	0.442	0.974	0.925	0.978	1.3	0.931	0.928	0.849	0.88
P fixed	0.396	1.17	1.13	1.02	0.534	0.62	0.766	0.955	1.09
Q fixed	0.5	0.869	0.837	0.958	0.745	0.679	0.904	0.888	0.83
R fixed	0.573	2.9	2.98	1.62	1.62	1.6	2.01	1.39	1.34
V fixed	0.584	0.521	0.654	0.815	0.438	0.798	0.634	0.828	0.895
W fixed	1.45	0.627	0.991	1.14	0.909	1.51	1.28	1.37	1.15
Y fixed	0.877	0.706	0.942	0.887	1.27	2.1	1.11	1.24	1.2
pThr fixed	1.32	1.33	1.14	0.786	0.699	1.1	1.22	1.25	1.32
pTyr fixed	0.373	0.593	0.669	0.602	0.86	0.653	0.977	0.948	1.04
